Results on three molecules are retold here after US20050287163A1, “Mycoplasma polypeptides” (priority 2002, published 2005).

Assay [1] has as its system trypsin-induced [Ca2+]i increase in swine ciliated epithelia. In words: Soybean trypsin inhibitor on trypsin-induced [Ca2+]i increase. The class given is cell-based. Conditions: inhibitor 10 U/mL; trypsin 10 U/mL. An excerpt: (§1) According to a recent report, trypsin at 0.1 U/mL can increase [Ca^2+]i in guinea pig tracheal epithelia (Oshiro et al., Life Sci., 71:547-558 (2002)). Since the estimated trypsin concentration in the [Ca^2+]i experiments described herein is about 1 U/mL, we tested whether trypsin plays a role in the observed tryptic fragment-induced [Ca^2+]i increase.

The subject of assay [2] is tryptic Mhyo polypeptide fragment-induced [Ca2+]i increase in ciliated tracheal epithelia. In words: Soybean trypsin inhibitor on tryptic Mhyo polypeptide fragment-induced [Ca2+]i increase. It is filed as cell-based, swine. Conditions: inhibitor 10 U/mL, incubated with preparation 37° C. 10 minutes. On the procedure: FIG. 14 is a graph plotting [Ca^2+]i increase in porcine ciliated tracheal cells incubated with tryptic Mhyo membrane preparation pretreated with a soybean trypsin inhibitor (TI). […] TI was incubated with the tryptic membrane preparation at 37° C. for 10 minutes prior to administration. […] Each trace depicts [Ca^2+]i changes in one cell.
as §1

In assay [3] the test system is Mhyo membrane-induced [Ca2+]i increase in ciliated tracheal cells. The assay can be described thus: Protease pretreatment of Mhyo membrane, effect on membrane-induced [Ca2+]i increase. The class given is cell-based, porcine. As to conditions: pretreatment of the membrane for 8 hours, 37° C. On the procedure: FIG. 6 contains four graphs plotting [Ca^2+]i response in ciliated porcine tracheal cells inoculated with Mhyo membranes. Each trace indicates the [Ca^2+]i changes in each tracheal cell. The arrows indicate when administration occurred. (A) The membrane preparation (100 μg/mL) increased [Ca^2+]i. (B) Digestion with proteinase K blocked the membrane-induced increase in [Ca^2+]i. The membrane (100 μg/0.1 mL PBS) was incubated with proteinase K (2 μg) at 37° C. for 8 hours before it was applied to tracheal cells in 0.9 mL Krebs-Ringer bicarbonate (KRB) buffer. (C) Digestion with trypsin potentiated the membrane-induced increase in [Ca^2+]i. The membrane (100 μg/0.1 mL PBS) was incubated with trypsin (6 μg) at 37° C. for 30 minutes before it was applied to tracheal cells in 0.9 mL KRB. […] The soluble protein was prepared by subjecting the trypsinized membrane to ultracentrifigation (100,000× g, 60 minutes) to obtain the supernatant.
Mycoplasmas lack cell walls and have only one type of membrane, the plasma membrane (Razin S. (1993) Mycoplasma membranes as models in membrane research (Chapter 2), In: Subcellular Biochemistry. Vol 20: Mycoplasma Cell Membranes, edited by Rottem S, Kahane I. Plenum Press, New York. pp. 1-28). The Mhyo membrane was prepared by osmotic lysis of the organisms and tested to determine if it increased [Ca^2+]i in ciliated tracheal cells. […]

“Also recorded” adds a separate entry of the source.

B1: soybean trypsin inhibitor: soybean trypsin inhibitor (protein, UniProt P01070 25-205, looked up)
Trypsin inhibitor A: DFVLDNEGNPLENGGTYYILSDITAFGGIRAAPTGNERCPLTVVQSRNELDKGIGTIISSPYRIRFIAEGHPLSLKFDSFAVIMLCVGIPTEWSVVEDLPEGPAVKIGENKDAMDGWFRLERVSDDEFNNYKLVFCPQQAEDDKCGDIGISIDHDDGTRRLVVSKNKPLVVQFQKLDKESL
Regarding B1, the “effect on trypsin-induced [Ca2+]i increase” value in assay [1] is listed as “inhibited”. Further, the “effect on tryptic Mhyo polypeptide fragment-induced [Ca2+]i increase” value in assay [2] is given as “failed to block”; in assay [2] (listed as TI), “failed to inhibit”.

B2: proteinase K: proteolytic enzyme used to pretreat the membrane (protein, UniProt P06873 106-384, looked up)
Proteinase K: AAQTNAPWGLARISSTSPGTSTYYYDESAGQGSCVYVIDTGIEASHPEFEGRAQMVKTYYYSSRDGNGHGTHCAGTVGSRTYGVAKKTQLFGVKVLDDNGSGQYSTIIAGMDFVASDKNNRNCPKGVVASLSLGGGYSSSVNSAAARLQSSGVMVAVAAGNNNADARNYSPASEPSVCTVGASDRYDRRSSFSNYGSVLDIFGPGTSILSTWIGGSTRSISGTSMATPHVAGLAAYLMTLGKTTAASACRYIADTANKGDLSNIPFGTVNLLAYNNYQA
As for B2, the “effect of protease pretreatment on membrane-induced [Ca2+]i increase” value in assay [3] is “blocked; also recorded: abolished”.

B3: papain: proteolytic enzyme used to pretreat the membrane (protein, UniProt P00784 134-345, looked up)
Papain: IPEYVDWRQKGAVTPVKNQGSCGSCWAFSAVVTIEGIIKIRTGNLNEYSEQELLDCDRRSYGCNGGYPWSALQLVAQYGIHYRNTYPYEGVQRYCRSREKGPYAAKTDGVRQVQPYNEGALLYSIANQPVSVVLEAAGKDFQLYRGGIFVGPCGNKVDHAVAAVGYGPNYILIKNSWGTGWGENGYIRIKRGTGNSYGVCGLYTSSFYPVKN
Regarding B3, the “effect of protease pretreatment on membrane-induced [Ca2+]i increase” value in assay [3] is reported as “abolished”.
